According to patent US20260258115A1:
Changes are numbered by the printed parent chain.

B1: ADI-41299 (antibody, V domains shown)
VH: EVQLVESGGGLVHPGRSLRLSCGASGFTFRSFAMHWVRQAPGKGLEWVAVISYDGSDEYYADSVKGRFTISRDNSRNTLFLQMNRLRPEDTAIYYCARAYCSTSNCPVLDYWGQGTLVTVSS
VL: QSVLIQPASVSGSPGQSITISCTGTSSDVGGYSLVSWYQQHPGKAPKLIIFEGNKRPAGVSDRFSGSKYGDTASLTISGLQAEDEADYYCCSYAGGHSVFGGGTKVTVL
B2: ADI-41303 (antibody, V domains shown)
VH: QVQLVQSGGGLVRPGGSLRVSCAASGFIFNNYALTWVRQAPGKGLEWVSAISGSGSSTYYADSVKGRFTISRENSNNRLYLQLSGLRAEDTAVYFCARVRGLVWFEGRIDPYPNVFDYWGQGTLVTVSS
VL: DIVLTQSPGTLSLSPGERATLSCRASQSVSNDYLAWYQQKPGQAPRLLIYDASSRAIGIPDRFSGSGSGTDFTLIISRLEPEDFAVYYCHHPGKFGQGTKVEIK
B3: ADI-41304 (antibody, V domains shown)
VH: EVQLVESGPGLVKPSQTLSLTCTVSGGSIRSHDYYWSWIRQPPGKGLEWIGYSYYSGSTYYNPSLKSRVIISLDTSKNQFSLNLTSVTAADTAMYYCARDRPHTSSWIPGWFDPWGQGTLVTVSS
VL: SYELTQPPSASGTPGQRVTISCSGSSSNIGSNTVSWYQQFPGKAPKLLIYSNNERPSGGPDRFSGSKSGTSASLAIGGLQSEDEANYYCAAWDDSLYAVVFGGGTKLTVL
B4: ADI-41306 (antibody, V domains shown)
VH: QVQLVESGPRLVKPSQTLSLTCTVSGGSIYRGDYDWNWIRQPPGKGLEWIGYISYTGNTHYNSSLKSRLSISADTSGTHFSLKLSSVTAADTAIYYCARDVGYGGNAAHYYYYAMDVWGQGTTVTVSS
VL: ETTLTQSPATLSLSPGERATLSCRASQSVGSSLAWYQQKVGQAPRLLIYDASSRVTGIPARFSGSGSGTDFTLTISSLEPGDFAVYYCQQRSNSLTFGGGTKVEIK
B5: ADI-41307 (antibody, V domains shown)
VH: QVQLVESGGGLVKPGGSLRLSCAASGFPLSPYALNWVRQAPGKGLEWVSSITSSSAYIYYADSVKGRFTVSRDNPTNSLYLQMNSLRAEDTAVYYCARTIPQHYYDNNGDYYNYGMDVWGQGTTVTVSS
VL: DIVLTQSPATLSVSPGQRITLSCRASQTVRSNLAWYQQKPGQPPRLLIYGASTRATGVPARFTGSGSGTEFTLTITSLQSDDFAVYYCHQYNDRPLTFGPGTKVEIK
B6: ADI-41308 (antibody, V domains shown)
VH: EVQLVESGPGLVKPSQTLSLTCAISGDSVSSNSAAWNWIRQSPSRGLERMGRTYYRSKWYDDYAVSVKSRIIINPDTSKNQFSLQLNSVTPEDTAVYYCARGISTFGGVIYALEIWGQGTMVTVSS
VL: SYVLTQPASVSGSPGQSITISCTGLTSDVGGYNFVSWYQQHPGKAPKLIIYDVSHRPSGVSNRFSGSESGNTASLTISGLQAEDEAHYYCSSYTRTSIVVFGGGTKLTVL
B7: ADI-41309 (antibody, V domains shown)
VH: EVQLLESGPGLVKPSQTLSLTCTVSGGSISSGDYYWSWVRQPPGKGLEWIGNIYHSGSTYYKPSLKSRVSISLDTSKNQFSLKLSSVTAADTAIYYCARDGGENYVWGTFRFLDVWGQGTTVTVSS
VL: DIRLTQSPGTLSLSPGERATLSCRASQSVSSSYLAWYQQKPGQAPRLLIYGVSSRATGIPDRFSGSGSGTDFTLTINRLEPEDFALYHCQQYGSSPHTFGQGTKVEIK
B8: ADI-41311 (antibody, V domains shown)
VH: QVTLKQSGPALVKPTQTLTLTCTFSGFSLSTKRMGVSWIRQPPGKALEWLARIDWDDDKYYSTSLRTRLTISKDTSKNQVVLTMTDMDPVDTATYYCARIQPYTSGGYYSYYFDYWGQGTLVTVSS
VL: DIQVTQSPSSLSASIGDRVTITCRASQTIASYLNWYQQKPGKAPKLLIYIASSLQSGVPSRFSGSGSGTDFTLTISTLQPEDFATYYCQQSYGTPWTFGQGTKVEIK
B9: ADI-41313 (antibody, V domains shown)
VH: EVQLVESGAEVKKPGASVKVSCKASGYTFNNYDISWVRQAPGQGLEWMGWISTYNGNTNYAQKFQGRATMTTDTSTTTAYMELRSLRSDDSAIYYCARVYCGGDCHNPFFLYFDLWGRGTLVTVSS
VL: SYVLTQPLSVSVALGQTARITCGGNNIGSKSVHWYQQKPGQAPLLVIYRDNNRPSGIPERFSGSTSGNTATLTISRAQAGDEADYSCQVWDNSDWVFGGGTKLTVL
B10: ADI-41314 (antibody, V domains shown)
VH: QVQLVQSGAEVKKPGSSVKVSCKAFGGIFSSYAISWVRQAPGQGLEWMGGIIPIFGTTKYAQKFQGRVTITADKSTSTVYMEVSSLRFEESAVYFCARAYCSGGTWYGGADYWGQGTLVTVSS
VL: QSVLTQPPSVSVSPGQTARITCSGDVLPKQYAYWYQQKPGQAPLLVMYKDTERPSGIPERFSGSSSVTAVTLTISGVQAEDEADYYCQSADSTQELFGGGTKLTVL
B11: ADI-41315 (antibody, V domains shown)
VH: EVQLLESGPGLVKPSETLSLTCAVSGGSISNYYWSWIRQPPGKGLEWIAYISYSGTTNYNPSLESRVTISVDTSKNQFSLKLNSVTAADTAVYYCARHEFLVLPDVWGQGTLVTVSS
VL: ETTLTQSPGTLSLSPGERATLSCRASQSVSSTFLAWYQQKPGQAPRLLIYAASSRATGIPDRFSGSGSGTDFTLIISRLEPEDFAVYYCQQYRSSPFSFGPGTKVEIK
B12: ADI-41316 (antibody, V domains shown)
VH: QVQLVQSGGGVVQPGRSLRLSCAASGFTFNNYGMHWVRQAPGKGLEWVAVLSFDGINKYYADSARGRFTISRDNSKNTLYLQMNSLRAEDTALYYCAKDRQEYSSGWTHDACDIWGQGTMVTVSS
VL: EIVMTQSPATLSVSPGERATLSCRASQNVNNNLAWYQQNPGQAPRLLIFGASTRATGIPARFSGSGSGTEFTLTISSLQSEDFAVYYCQQYNNWPRTFGQGTKLEIK
B13: ADI-41318 (antibody, V domains shown)
VH: EVQLLESGAEVKKPGSSVRVSCKAFGGTFSSYAFSWVRQAPGQGLEWMGGITPMFGTENYAPNFQGRVTITADKLTTTVYMELSRLRSEDSAVYYCAREGGRLGTTMGAFDMWGQGTMVTVSS
VL: DIRLTQSPSSLSASVGDRVTITCRASHGISSALAWYQQRPGRVPQVLIFHASTLESGVPSRFSGSGSGTDFTLTISSLQPEDFATYYCQQFNSYPYTFGQGTKVEIK
B14: ADI-41323 (antibody, V domains shown)
VH: EVQLLESGGGVVRPGGSLRLSCAASGFTFDDYAMGWVRQAPGKGLEWVSGITWNAGSTAYAGSVKGRFTISRDNAKNSLFLQMNSLRAEDTAFYLCARHVDSSGPVARHFDYWGQGTLVTVSS
VL: NFMLTQPHSVSESPGKTVTISCTRSSGSIARNYVQWYQQRPGSAPTIVIYEDNQRPSGVPDRFSGSIDSSSNSASLTISGLKTEDEADYYCQSYDPSNVVFGGGTKLTVL
B15: ADI-41324 (antibody, V domains shown)
VH: EVQLVESGGGLVQPGGSLRLSCAASGFTVSNNYMRWVRQAPGKGLEWVSVIYSSGSTDYADSVKGRFTISRDNSKNTLYLQMNSLRAEDTAVYYCARERTLFYYDSSGFFDYWGQGTLVTVSS
VL: ETTLTQSPGTLSLSPGERATLSCRASQSVDSSYLAWYQQKPGQAPRLLIYGASNRATGIPDRFSGSGSGTDFTLTISRLEPEDFAVYYCQQYGRSLTFGGGTKLEIK
B16: ADI-41341 (antibody, V domains shown)
VH: QVQLVQSGAEVKKPGSSVKVSCKASGGTFSSYATHWVRQAPGQGLEWMGGIIPIFGRATYAQKFQGRVTISADESTSTAYMELSSLRSEDTAVYYCARGRDDRSGDHIAFLYHYGMDVWGQGSTVTVSS
VL: QSVLTQPPSVSAAPGQKVSISCSGSSSNIGINHASWYQHLPGTAPKLLIYDNNKRPSGIPDRFSGSKSGTSATLGISGLQTGDEAAYYCGTWDTGLSAVVFGGGTKLTVL
B17: ADI-41342 (antibody, V domains shown)
VH: QVQLVQSGAEVKKPGSSVKVSCKASGGTLTSYGVSWVRQAPGQGLEWMGGIIPIFGTVDYAQKFQGRVTITADEPTSTAYMELSSLTSDDTAVYYCARDPWVSGPVEFYYYFDVWGRGTLVTVSS
VL: DIVLTESPATLSLSPGERATLSCRASQSINNRYLAWYQQKPGQAPRLLIFGASSRATGIPDRFSGSGSGTDFTLTISRLEPEDFAVYYCQQYGSTPPTFGQGTKVEIK
B18: ADI-41345 (antibody, V domains shown)
VH: EVQLVQSGAEVRKPGESLKISCKGSGYNFASYWIAWVRQMPGKGLEWMGIIFPGDSDTRYSPSFQGQVTISVDKSISTAYLQWSSLKASDTAIYYCATSKYTFGYLDWGQGTLVTVSS
VL: B14 VL with R31S, I47T, P96T, V99Q, G103T, L107V
B19: ADI-41346 (antibody, V domains shown)
VH: QVQLVQSGPEVKKPGESLKISCTLSASGLTTYWIGWVRQMPAKGLEWMGIIFPGDSDTRYSPSFQGQVTISADKSTNTAYLQWSGLKASDTAIYYCATLQTPVTGLDQWGQGTLVTVSS
VL: B14 VL with S28N, N32S, I47T, Y50H, N53D, S69T, V99Y, G103T, L107V
B20: ADI-41347 (antibody, V domains shown)
VH: EVQLVESGPGLVKPSGTLSLTCAVSGGSVSSDNWWSWVRQPPGKGIEWIGEIYPSGGTNYNPSLNSRVTISVDKSKNQFSLKLNSVTAADTAIYYCARAPFDSSGYHSNSVWGQGTLVTVSS
VL: ETTLTQSPLSLPVTPGEPASISCRSSQSLLHSNGHNYLDWYVQKPGQSPQLLIYLSSNRASGVPDRFSGSGSGTDFTLRISRVEAEDVGVYYCMQPLQTPQTFGQGTKVEIK

Each binder was assayed against RSV prefusion F (preF, DS-Cav1) (Respiratory syncytial virus) (assay: BLI, IgG on sensor, 100 nM antigen).
Binder B1 has a Kd of 3.48 nM. Work on B2 yielded a Kd of 2.96 nM. B3 gave a Kd of 0.338 nM. B4 showed a Kd of 0.462 nM. B5 was tested, and the Kd was 2.99 nM. For B6, the Kd was 4 nM. For B7, the Kd was 4.34 nM. Binder B8 has a Kd of 0.754 nM. B9 showed a Kd of 0.455 nM. With B10 the Kd was 2.41 nM. With B11 the Kd was 2.93 nM. Binder B12 has a Kd of 3.74 nM. For B13, the Kd was 426 nM. With B14 the Kd was 1.95 nM. B15 was tested, and the Kd was 2.47 nM. In the case of B16, the Kd is reported as 2.83 nM. B17 showed a Kd of 3.99 nM. B18 gave a Kd of 2.29 nM. Work on B19 yielded a Kd of 1.88 nM. B20 showed a Kd of 2.6 nM.

These binders were tested against RSV postfusion F (postF, F deltaFP) (Respiratory syncytial virus) (assay: BLI, IgG on sensor, 100 nM antigen).
B1 gave a Kd of 2.25 nM. In the case of B2, the Kd is reported as 0.944 nM. B3 showed a Kd of 0.33 nM. In the case of B4, the Kd is reported as 0.454 nM. Work on B5 yielded a Kd of 0.83 nM. With B6 the Kd was 0.519 nM. For B7, the Kd was 1.36 nM. Work on B8 yielded a Kd of 0.524 nM. For B9, the Kd was 0.342 nM. B10 gave a Kd of 0.414 nM. Binder B11 has a Kd of 1.03 nM. In the case of B12, the Kd is reported as 1.05 nM. For B13, the Kd was 35.4 nM. B14 was tested, and the Kd was 0.331 nM. Work on B15 yielded a Kd of 0.426 nM. For B16, the Kd was 1.97 nM. Binder B17 has a Kd of 0.591 nM. B18 was tested, and the Kd was 0.349 nM. B19 gave a Kd of 0.267 nM. B20 was tested, and the Kd was 0.521 nM.
